This note sets out measurements from the supplement of paper PMC10126150.

± gives the standard deviation of the averaged measurements.
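Further: ATP exposure 15 min at 22 °C before imaging.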

The test system of this data set is ATP. The experiment in a line: switch fluorescence ratio, 500 uM ATP over buffer (Cy3 cluster intensity, sum of 5 cycles each) (fold (ratio)); higher = stronger signal-on switching upon ATP binding; sequences stand for … in TCGTCGGCAGCGTCAGATGTGTATAAGAGACAGTTTTTTTTTTTTTTTTTTTTTTTTT…TC. The settings on record: aptamer strand: ATP DNA aptamer (quencher-CACCTGGGGGAGTATTGCGGAGGAAGG + anchor), 100 nM annealed; ATP concentration: 500 uM. Put shortly:
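For every switch-domain sequence, the fluorescence ratio is the mean of per-cluster values, each being summed target-cycle Cy3 intensity over summed buffer-cycle Cy3 intensity. Clusters outside 100-1000 RFU were excluded. On a modified Illumina MiSeq flow-cell, the Cy3-labelled switching-strand clusters were annealed to 100 nM quencher-labelled ATP aptamer, imaged in selection buffer and then after 15 min with 500 uM ATP at 22 °C. Five such cycles were run, with NaOH stripping and re-annealing between them.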
As for ATAAAAAAAG, the switch fluorescence ratio is 1.05 ± 0.021.
As for GGGGGGCAAG, the figure is 0.9858 ± 0.009.
As for CGGAAAAGGG, the figure is 0.993 ± 0.064; as for GGGGGGGTAG, 1 ± 0.021; as for GGGGGGACGA, 1.01 ± 0.033.
For GGGCTATTAT the value was 1.02 ± 0.081; for TGGGGGCTAG, 0.997 ± 0.037.
For CTAGGTTATG, the switch fluorescence ratio was determined as 0.978 ± 0.01.
For GGTATTAGAT the value was 1.01 ± 0.049; for TTTTACTAGA, 1.032 ± 0.0059; for TCGTCGTGTG, 1 ± 0.028.
As for GATGGCCGCG, the figure is 1.03 ± 0.024; as for TCGGGAGAAG, 1.01 ± 0.013.
Regarding AAGACGGGCT, the switch fluorescence ratio came to 1.01 ± 0.037.
As for CTCAGGCG, the figure is 1.17 ± 0.23; as for TTTATTTATA, 1.01 ± 0.025.
Turning to TGGAATTTAG, the switch fluorescence ratio worked out at 1.013 ± 0.00072.
As for GCATTTGGTC, the figure is 1.01 ± 0.023.
For ATTGGTTCCA the value was 1.03 ± 0.041.
As for CAGGGTTGAG, the figure is 0.997 ± 0.014.
As to TGGGGGTCAC, the switch fluorescence ratio turned out to be 0.9632 ± 0.0067.
As for CATGCTGGG, the figure is 0.992 ± 0.04; as for TGTAGTAGCG, 0.9901 ± 0.0064.
With AAAAAAATCC, the switch fluorescence ratio was found to be 1.01 ± 0.07.
As for GCGCGCTAGT, the figure is 1.007 ± 0.0024.
As for AGGTAGATGG, the figure is 0.995 ± 0.0096; as for AGGCATCAAC, 1.02 ± 0.013.
TGTGGTAGAA: the switch fluorescence ratio was found to be 0.989 ± 0.023.
As for TTATTCGTTG, the figure is 0.99 ± 0.025; as for GGTTTGGGCT, 0.983 ± 0.051.
Turning to GGAGGGGCGT, the switch fluorescence ratio was determined as 0.993 ± 0.023.
For the sequence TTCAGGGAGG, the switch fluorescence ratio turned out to be 1 ± 0.033.
For CTGGTTTGAG the value was 0.97 ± 0.012; for CTGGGGGGGA, 1.02 ± 0.022; for TTTTAGGGCC, 0.999 ± 0.05.
For AGGGTTATTT the value was 0.998 ± 0.03.
As for GCCGCAGTTT, the figure is 1.31 ± 0.18; as for TGAGAGGGGT, 1.05 ± 0.042.
ACATTCGGGC: the switch fluorescence ratio was 1.02 ± 0.041.
For ACTTAATCGT the value was 1.02 ± 0.045.
Take GATGGGCACC: the switch fluorescence ratio came out at 1.01 ± 0.012.
As for GCTAGGTGAA, the figure is 1.21 ± 0.017; as for TTCTGTCCAC, 1.03 ± 0.013; as for CTATTGGGTT, 1.02 ± 0.016.
For CGTTTAGGCA the value was 1.02 ± 0.024.
For TATAAGTTTG the value was 0.999 ± 0.015; for GGAGAGGGCA, 1.016 ± 0.0077.
In the case of TAGCGATGGG, the switch fluorescence ratio was determined as 1.01 ± 0.017.
As for GGCGGGATAT, the figure is 1.01 ± 0.032; as for TATGAAGTTG, 0.985 ± 0.015; as for CGTTTTGTTA, 0.977 ± 0.028.
As for CTTCGTGCAT, the figure is 1.23 ± 0.069; as for GCCTGAGGGA, 1.05 ± 0.049; as for TCCTTTTAGA, 1.01 ± 0.011.
As for TAAGTATTGG, the figure is 0.977 ± 0.037.
Take TTGAGTGGGT: the switch fluorescence ratio stood at 0.99 ± 0.042.
For the sequence GGTGCACCGA, the switch fluorescence ratio turned out to be 0.9884 ± 0.0063.
As for TTTTTGAGGG, the figure is 1.01 ± 0.04; as for CGGTGGGTGC, 0.997 ± 0.038; as for TGGGTTGGCT, 1.015 ± 0.0098.
As for AGCGGGTAGA, the figure is 0.986 ± 0.02; as for CGCTGGTTGT, 0.9855 ± 0.0013; as for CGGCTTTATA, 1.02 ± 0.028.
For AAAAGACGGT the value was 1.015 ± 0.0016; for CAGCTAGATA, 0.9987 ± 0.0065.
As for GTGGTATGTG, the switch fluorescence ratio is 0.95 ± 0.045.
For CACCTAATGT the value was 1.06 ± 0.015; for CTGGGGATTG, 1.01 ± 0.014.
For TTATTCGGTT the value was 0.982 ± 0.031; for AGAACTGTGA, 0.9889 ± 0.0037; for GGCGGAACGT, 1 ± 0.023.
For GGGAAGGGAT the value was 0.981 ± 0.031; for TGGTGGGGCT, 0.994 ± 0.026; for CCTTGAATGG, 1.05 ± 0.005.
Regarding GCATGCGGTC, the switch fluorescence ratio was 1.01 ± 0.027.
Consider TATGAAAGGC, for which the switch fluorescence ratio came out at 0.991 ± 0.053.
For TATCGTGAGT the value was 0.9822 ± 0.0071.
For GAACGGTATT the value was 1.06 ± 0.065; for TTTAAAACAG, 1.018 ± 0.0079; for TTAAAAAATT, 1.02 ± 0.039.
As for CGAAAATGGT, the figure is 1.04 ± 0.13; as for GATCGGGCTA, 0.9664 ± 0.0014.
For the sequence AACTCAGATT, the switch fluorescence ratio is 1.01 ± 0.026.
As for GGGAGGGGGT, the figure is 1 ± 0.035; as for AGGGGTGTT, 1.02 ± 0.016.
As for AAGCATCATT, the switch fluorescence ratio was 1.0176 ± 0.00039.
As for GTCTGGTTGA, the figure is 1.02 ± 0.033; as for TGTAGGGTTC, 1.12 ± 0.19.
As for GATGAAAAAT, the figure is 0.975 ± 0.024; as for TCCAGACTCT, 1.02 ± 0.011.
For ATGGTCAGAT the value was 0.994 ± 0.027; for CCAAAAGGCT, 1.08 ± 0.044.
Take GGGTAGAGGG: the switch fluorescence ratio was found to be 0.987 ± 0.049.
As for ATGCCAATAA, the figure is 1.01 ± 0.03; as for ACTGGGGGCT, 0.975 ± 0.0098.
As for TTGGGCAGGG, the figure is 0.982 ± 0.036; as for AAAAAACGCT, 1.08 ± 0.061; as for ATAATAGGCG, 0.985 ± 0.0028.
For GCAGCCATAA the value was 2.27 ± 0.16.
As to GGGGGGCAGG, the switch fluorescence ratio turned out to be 1.03 ± 0.039.
As for ATGAAGGGAT, the figure is 0.9969 ± 0.00076.
As for GTCGTATAGG, the figure is 0.978 ± 0.023; as for ATTATACGGG, 1.052 ± 0.007; as for CAGCCTTGTG, 1.013 ± 0.0079.
As for CCAGTTTCTG, the figure is 1.02 ± 0.012; as for GCCGGGGTTA, 0.9966 ± 0.0088; as for GACGGGTTAG, 1.02 ± 0.017.
Take TAAACAGTGA: the switch fluorescence ratio stood at 1.01 ± 0.038.
Consider TAAAGATTTC, for which the switch fluorescence ratio was 1.01 ± 0.069.
In the case of CTTGTTTTGT, the switch fluorescence ratio is 1.02 ± 0.015.
As for CAAAGTTGGT, the figure is 0.994 ± 0.05.
As for GATATATTCG, the figure is 1 ± 0.016; as for TGGGGTTAGA, 0.978 ± 0.029; as for CGACCGGGGG, 1.11 ± 0.094.
As for TGGGCTGGTA, the switch fluorescence ratio came to 0.972 ± 0.025.
As for TATGGAGTTT, the figure is 1.01 ± 0.013; as for CGGTCCTTGG, 0.99 ± 0.014; as for AAGGGTAAGC, 0.981 ± 0.029.
Regarding AGCATTTTTG, the switch fluorescence ratio was 1.024 ± 0.0035.
For TTGGCGAAGG the value was 0.982 ± 0.045.
